# Reference: US20040121942A1 (University of California, published 2004)
# Substitutions are numbered along the chain they refer to. In names and notes the source's numbering stands.
# B1: K3E/R14E double point mutation of PLB expressed from a recombinant adenovirus (other)
# chain: MEEVQYLTRSAIREASTIEMPQQARQKLQNLFINFCLILICLLLICIIVMLL
# notes: ID
# Legend:
# [1] = target: T1, endogenous wild-type PLB of rat cardiac myocytes (rat, UniProt P61016 1-52); test: cell-based or functional assay
# T1 sequence (looked up): B1 chain with E3K, E14R, K27N
# [2] = target: T2, sense PLB (wild-type phospholamban) expressed from a recombinant adenovirus (human, UniProt P26678 1-52); test: Western blot of Sol8 cells co-infected with sPLB and K3E/R14E; bands read as heteropentamer
# T2 construct: ID; PLB exists as pentamer and monomer; also called sPLB; wild-type PLB
# T2 sequence: B1 chain with E3K, E14R
binder,measurement,setting,value
B1,"lowering of the EC50 of Ca2+ for SR Ca2+ uptake, adult rat myocytes",[1],36%
same,binding result,[2],binds
